Results as given in ChEMBL document CHEMBL1137310, “Stereoselective chemoenzymatic synthesis of the four stereoisomers of l-2-(2-carboxycyclobutyl)glycine and pharmacological characterization at human excitatory amino acid transporter subtypes 1, 2, and 3” (J Med Chem, 2006).

What was measured:
Assay type in all cases: functional, cell-based
[1] = substrate: N[C@H](C(=O)O)[C@H]1CC[C@@H]1C(=O)O; assay: (§1) Substrate activity at human EAAT1 expressed in HEK293 cells by FLIPR membrane potential assay
[2] = substrate: N[C@H](C(=O)O)[C@@H]1CC[C@H]1C(=O)O; assay: as §1
[3] = substrate: N[C@@H](CCC(=O)O)C(=O)O; assay: as §1
[4] = substrate: N[C@H](C(=O)O)[C@H]1CC[C@@H]1C(=O)O; assay: (§2) Substrate activity at human EAAT3 expressed in HEK293 cells by FLIPR membrane potential assay
[5] = substrate: N[C@@H](CCC(=O)O)C(=O)O; assay: as §2

B1: Excitatory amino acid transporter 1 (Homo sapiens), P43003 (protein)
chain: MTKSNGEEPKMGGRMERFQQGVRKRTLLAKKKVQNITKEDVKSYLFRNAFVLLTVTAVIVGTILGFTLRPYRMSYREVKYFSFPGELLMRMLQMLVLPLIISSLVTGMAALDSKASGKMGMRAVVYYMTTTIIAVVIGIIIVIIIHPGKGTKENMHREGKIVRVTAADAFLDLIRNMFPPNLVEACFKQFKTNYEKRSFKVPIQANETLVGAVINNVSEAMETLTRITEELVPVPGSVNGVNALGLVVFSMCFGFVIGNMKEQGQALREFFDSLNEAIMRLVAVIMWYAPVGILFLIAGKIVEMEDMGVIGGQLAMYTVTVIVGLLIHAVIVLPLLYFLVTRKNPWVFIGGLLQALITALGTSSSSATLPITFKCLEENNGVDKRVTRFVLPVGATINMDGTALYEALAAIFIAQVNNFELNFGQIITISITATAASIGAAGIPQAGLVTMVIVLTSVGLPTDDITLIIAVDWFLDRLRTTTNVLGDSLGAGIVEHLSRHELKNRDVEMGNSVIEENEMKKPYQLIAQDNETEKPIDSETKM
Km [1]: 300 µM | Km [2]: 96 µM | Km [3]: 7.9 µM

B2: Excitatory amino acid transporter 3 (Homo sapiens), P43005 (protein)
chain: MGKPARKGCEWKRFLKNNWVLLSTVAAVVLGITTGVLVREHSNLSTLEKFYFAFPGEILMRMLKLIILPLIISSMITGVAALDSNVSGKIGLRAVVYYFCTTLIAVILGIVLVVSIKPGVTQKVGEIARTGSTPEVSTVDAMLDLIRNMFPENLVQACFQQYKTKREEVKPPSDPEMNMTEESFTAVMTTAISKNKTKEYKIVGMYSDGINVLGLIVFCLVFGLVIGKMGEKGQILVDFFNALSDATMKIVQIIMCYMPLGILFLIAGKIIEVEDWEIFRKLGLYMATVLTGLAIHSIVILPLIYFIVVRKNPFRFAMGMAQALLTALMISSSSATLPVTFRCAEENNQVDKRITRFVLPVGATINMDGTALYEAVAAVFIAQLNDLDLGIGQIITISITATSASIGAAGVPQAGLVTMVIVLSAVGLPAEDVTLIIAVDWLLDRFRTMVNVLGDAFGTGIVEKLSKKELEQMDVSSEVNIVNPFALESTILDNEDSDTKKSYVNGGFAVDKSDTISFTQTSQF
Km [4]: 300 µM | Km [5]: 9.9 µM
